The values below come from CN116063506A (HUADAO SHANGHAI BIOMEDICAL CO LTD, dated 2023).

By EC50 is commonly meant the midpoint of the concentration-response curve.

The experiment addresses T1, CD4抗原 (表面抗原分化簇4, Cluster of Differentiation 4) (UniProt P01730 26-458, limits assumed).
T1 construct: whole, on cells; also called 细胞表面的CD4抗原; Nalm6-CD4
The experiment in a line: flow cytometry on Nalm6-CD4 cells; antibody from 4 μg/mL in 4-fold dilutions, 10 concentrations; APC goat anti-mouse IgG secondary. (Flow cytometry measures light scatter and fluorescence of single cells or particles in a stream.)

B1: 分离的抗体(标记为CD4-14) (antibody, V domains shown)
VH: QVQLVQSGPELKKPGASVKVSCKASGYTFTDYVIHWVKQATGQGLEWIGEIYPGSGSAYSNAKFKDRVTMTADKSSNTAYMELSSLTSDDTAVYFCARRGNGTGFAYWGQGTLVTVSS
VL: DIVLTQSPASLAVSLGQRATITCKAGQSVDYDGDSYMNWYQQKPGQPPKLLIYVASNLESGIPARFSGSGSGTDFTLNIHPVEENDAATYYCQQSYKDPLTFGQGTKLEIK
notes: also called 分离抗体; 本发明的分离抗体
In turn, B1 registered an EC50 of 0.152 µg/mL.
